# PMC7822889
# Values joined by “and” are separate entries in the source; they are usually repeats but may differ in a detail not shown here. Equal values may be shown once.
# Molecular target: SpyCatcher003-mi3 VLP
substance,measurement,value
SpyTag-RBD (from UniProt P0DTC2 331-529) (domain or fragment),display efficiency,93%
same,display efficiency (1:1 molar ratio),64%
same,stoichiometry N,56 RBDs per VLP and 38 RBD per VLP
